The results in this text go back to article PMC4987513, “Phytochrome B and REVEILLE1/2-mediated signalling controls seed dormancy and germination in Arabidopsis”.

Details in all cases: protein: recombinant; tags: His; blunt
The target in series [1] is T1, HIS-RVE1 (Arabidopsis thaliana, UniProt F4KGY6 1-387). As to the kind of experiment: EMSA; LightShift Chemiluminescent EMSA Kit (Pierce) per manufacturer, 5% polyacrylamide gel; buffer, salt, pH and temperature not stated. (In general: Mobility shift assays separate free from complexed probe on a gel.)
In series [2] the target is T1, HIS-RVE1. As to the kind of experiment: competition; unlabelled 50x excess vs biotin-E3 probe; no effect on shift; LightShift Chemiluminescent EMSA Kit (Pierce) per manufacturer, 5% polyacrylamide gel; buffer, salt, pH and temperature not stated.
Series [3] addresses T1, HIS-RVE1. Put plainly: competition; unlabelled 50x excess vs biotin-E4 probe; no effect on shift; LightShift Chemiluminescent EMSA Kit (Pierce) per manufacturer, 5% polyacrylamide gel; buffer, salt, pH and temperature not stated.

T1 sequence (F4KGY6 whole entry): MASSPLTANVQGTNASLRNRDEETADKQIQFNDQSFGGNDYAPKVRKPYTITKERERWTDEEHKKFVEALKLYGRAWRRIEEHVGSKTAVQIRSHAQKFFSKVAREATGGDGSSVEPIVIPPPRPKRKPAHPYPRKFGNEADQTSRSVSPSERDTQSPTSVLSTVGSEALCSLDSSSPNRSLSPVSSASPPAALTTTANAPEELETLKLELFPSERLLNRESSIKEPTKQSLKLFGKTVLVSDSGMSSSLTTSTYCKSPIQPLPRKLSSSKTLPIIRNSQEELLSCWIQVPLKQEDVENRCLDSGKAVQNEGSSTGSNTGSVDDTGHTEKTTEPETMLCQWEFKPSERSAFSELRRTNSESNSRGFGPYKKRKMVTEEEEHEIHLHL

B1: GA3ox2 E3 (3 copies) WT (dsDNA)
DNA 1: GTTTAACGATATTAGTTTTTGTTTAACGATATTAGTTTTTGTTTAACGATATTAGTTTTT
DNA 2: AAAAACTAATATCGTTAAACAAAAACTAATATCGTTAAACAAAAACTAATATCGTTAAAC
In the case of B1, the binding result in the series with HIS-RVE1 [1] was “binds”.

B2: GA3ox2 E3 (3 copies) mutant (dsDNA)
DNA 1: GTTTAACGGGATAGGTTTTTGTTTAACGGGATAGGTTTTTGTTTAACGGGATAGGTTTTT
DNA 2: AAAAACCTATCCCGTTAAACAAAAACCTATCCCGTTAAACAAAAACCTATCCCGTTAAAC
With B2, the binding result with HIS-RVE1 [2] is recorded as “no binding”.

B3: GA3ox2 E4 (3 copies) mutant (dsDNA)
DNA 1: AAGTACGTCTCAGTACCAAAAAGTACGTCTCAGTACCAAAAAGTACGTCTCAGTACCAAA
DNA 2: TTTGGTACTGAGACGTACTTTTTGGTACTGAGACGTACTTTTTGGTACTGAGACGTACTT
Take B3: in the series with HIS-RVE1 [3], the binding result is reported as “no binding”.

B4: GA3ox2 E4 (3 copies) WT (dsDNA)
DNA 1: AAGTATCATATCATACCAAAAAGTATCATATCATACCAAAAAGTATCATATCATACCAAA
DNA 2: TTTGGTATGATATGATACTTTTTGGTATGATATGATACTTTTTGGTATGATATGATACTT
B4: the binding result with HIS-RVE1 [1] is “binds”.
